Experimental data reported in patent US20110183922A1.

Target: rat AChEt subunit (rat) (UniProt P37136)
Assay: cell-based or functional assay

Chain of rat AChEt subunit (rat) (P37136 32-614 limits assumed): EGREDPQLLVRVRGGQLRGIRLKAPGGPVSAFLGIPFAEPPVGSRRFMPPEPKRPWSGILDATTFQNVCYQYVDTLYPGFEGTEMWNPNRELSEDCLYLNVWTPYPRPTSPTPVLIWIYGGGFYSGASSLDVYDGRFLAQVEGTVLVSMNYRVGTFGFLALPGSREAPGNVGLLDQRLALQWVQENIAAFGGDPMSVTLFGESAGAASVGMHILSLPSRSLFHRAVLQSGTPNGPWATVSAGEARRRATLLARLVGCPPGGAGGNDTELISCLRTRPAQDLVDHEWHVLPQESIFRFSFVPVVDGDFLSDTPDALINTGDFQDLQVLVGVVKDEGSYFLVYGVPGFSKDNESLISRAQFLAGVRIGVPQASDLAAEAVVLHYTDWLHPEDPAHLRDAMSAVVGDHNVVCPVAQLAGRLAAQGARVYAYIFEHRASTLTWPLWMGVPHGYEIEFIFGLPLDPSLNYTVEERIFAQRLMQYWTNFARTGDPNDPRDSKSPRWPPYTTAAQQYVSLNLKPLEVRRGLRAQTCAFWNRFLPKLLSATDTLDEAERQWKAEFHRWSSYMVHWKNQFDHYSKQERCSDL

cell-associated AChE activity / tetramerization (velocity sedimentation, COS cells): 100 % increase
Substance: ColQ PRAD-GPI: PRAD encoding N-terminal domain of ColQ (Qn) linked to the C-terminal domain of the GPI-anchored AChE form
